This is an account of results in PMC8930418.

The series has as its target dSpCas9 (catalytically inert dCas9) (UniProt Q99ZW2). Kind of series: MST.

As a reminder, the Kd is a measure of binding affinity in units of concentration. A higher Kd goes with lower affinity.

UniProt Q99ZW2, sequence (Q99ZW2 whole entry): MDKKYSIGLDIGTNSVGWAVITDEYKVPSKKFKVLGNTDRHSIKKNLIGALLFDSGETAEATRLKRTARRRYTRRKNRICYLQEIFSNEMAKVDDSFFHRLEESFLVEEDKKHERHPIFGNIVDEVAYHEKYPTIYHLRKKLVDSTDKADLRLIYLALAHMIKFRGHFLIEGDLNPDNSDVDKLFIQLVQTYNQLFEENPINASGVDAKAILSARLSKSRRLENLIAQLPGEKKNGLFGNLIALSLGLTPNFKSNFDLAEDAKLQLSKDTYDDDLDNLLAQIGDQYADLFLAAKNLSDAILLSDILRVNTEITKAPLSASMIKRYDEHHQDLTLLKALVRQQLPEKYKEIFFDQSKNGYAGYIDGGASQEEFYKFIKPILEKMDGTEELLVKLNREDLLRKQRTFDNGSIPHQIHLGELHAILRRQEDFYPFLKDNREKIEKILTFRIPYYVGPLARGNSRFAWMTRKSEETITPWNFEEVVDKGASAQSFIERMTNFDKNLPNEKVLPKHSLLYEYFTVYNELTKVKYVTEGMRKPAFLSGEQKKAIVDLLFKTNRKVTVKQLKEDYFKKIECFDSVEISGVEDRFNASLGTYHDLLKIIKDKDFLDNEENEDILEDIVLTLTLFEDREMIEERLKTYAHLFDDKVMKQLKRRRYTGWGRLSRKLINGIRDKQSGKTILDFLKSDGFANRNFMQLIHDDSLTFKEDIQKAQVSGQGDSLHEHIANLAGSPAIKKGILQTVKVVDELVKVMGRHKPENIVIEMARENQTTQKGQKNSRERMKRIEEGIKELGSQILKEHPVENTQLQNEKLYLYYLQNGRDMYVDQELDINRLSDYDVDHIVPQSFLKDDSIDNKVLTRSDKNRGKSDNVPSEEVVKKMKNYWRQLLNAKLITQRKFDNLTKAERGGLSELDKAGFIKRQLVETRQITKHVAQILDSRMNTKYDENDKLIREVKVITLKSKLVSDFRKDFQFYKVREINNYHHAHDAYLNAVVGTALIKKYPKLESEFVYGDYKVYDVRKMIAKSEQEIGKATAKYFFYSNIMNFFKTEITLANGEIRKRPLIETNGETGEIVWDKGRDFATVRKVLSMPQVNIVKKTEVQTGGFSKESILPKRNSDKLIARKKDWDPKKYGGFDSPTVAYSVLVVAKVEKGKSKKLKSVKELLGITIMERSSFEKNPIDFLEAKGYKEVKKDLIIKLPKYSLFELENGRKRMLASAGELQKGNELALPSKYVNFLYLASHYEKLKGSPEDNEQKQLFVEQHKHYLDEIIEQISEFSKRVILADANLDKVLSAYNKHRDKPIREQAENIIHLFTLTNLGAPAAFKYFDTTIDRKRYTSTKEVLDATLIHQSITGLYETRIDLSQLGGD

“GGCCCAGACTGAGCACGTGAGTTTTAGAGCTAGAAATAGCAAGTTAAAATAAGGCTAGTCCGTTATCAACTTGAAAAAGTGGCACCGAGTCGGTGCTGGAGGAAGCAGGGCTTCCTTTCCTCTGCCATCACTTATCGTCGTCATCCTTGTAATCCGTGCTCAGTCTGTCTCTCTCTTGACGCGGTTCTATCTAGTTACGCGTTAAACCAACTAGAAATTTTTT [evopreQ1 epegRNA (guide) + HEK3 dsDNA target]” yielded a Kd of 10 nM.
The sequence “GGCCCAGACTGAGCACGTGAGTTTTAGAGCTAGAAATAGCAAGTTAAAATAAGGCTAGTCCGTTATCAACTTGAAAAAGTGGCACCGAGTCGGTGCTGGAGGAAGCAGGGCTTCCTTTCCTCTGCCATCACTTATCGTCGTCATCCTTGTAATCCGTGCTCAGTCTGTTTTTT [unmodified pegRNA (guide) + HEK3 dsDNA target]” registered a Kd of 8.1 nM.
